Reference: the DeepSol protein solubility set

Experiment: soluble on expression in E. coli; label from the status in PepcDB or PDB records

Q: Which “soluble on expression in E. coli” value does the source give for “MWPPNAENNHCNYSYHEHAELNPHDHYHHHHYPHSSVHHTECYQTLSCPSDLPVETSYYNSVPPSYQDLGQTDLSPQFWCAEVDCVHERCSTKEIPHEQSKIFEEISKECDHIMNSAGDCEKCQVEHENGAQEAIPINDLVDIVMQTVDNLKKEGSSNDETKLLSRKRQQNKVAAARYRDKQKAKWQDLLDQLEAEEDRNQRLKLQAGHLEKEVAEMRQAFLAKLAKK” here?
A: Its value is “not soluble”.

Q: With “GPGSMSDDTRYMYPARKAHAMDLGSSLNPEGDQKQTWGSVASVADAMSPTAEIKPSAPQVTHFGTGLGMQSSTGDPTLQEADSDGDKTEAVNEFDLAAYSKEDLTQTLHKRIMSRMFSAFDVTQVGYLDINKLKELCVYVGRNMSQEASEKMFDELKGIDGHITFDVFWNWWTTYPDTKMTKDTFSLVSADFSVPYHQQQLKIKDEGEIFTPSYRVKYYFKDMETGLRRRVSPWHDVPLYVRDPVRTKPENIRANRYNFICEIPKWTRAKFEIATGEPFNPIKQDIKNGVPRFYKHGDMMWNYGAFPQTWESTEVIFEDGVSGDNDPIDGVEIGMRQMRVGEIHPVRILGVLGMIDDGQMDWKVICMSVNDPVARFIKDIDDIPKFLPGCLDALREWFRVYKICQGGVENKFAFNGEYKDKTYAMKVVDESHYMWENLRKIKKKEEV” as the sequence, how does the “soluble on expression in E. coli” value read?
A: The value was “soluble”.

Q: For “MKVIFNADDFGLTQGVNQGIVKAHLDGVVKSTTLMVGMPAEQHAVQLAKQLPDLKIGLHLRFTAGRPLTGERNLTDEHGVFTAYRDFWQRRDYQPEAIYHEAIAQVEHFLKLGLTLSHLDSHHHAHTHPQLAPIIYEVAKKYHVPLRDIGMAGEEAFGCRYHFTDFFYDQRLGIDPLMKHLLELKERFDLVEVMCHPAFVDPLLEKCSGYAKQREEELHILTSAQLIQLLVAHDIEITDYSALISAPLHSCV”, which “soluble on expression in E. coli” value is on record?
A: Its value is “not soluble”.

Q: Which “soluble on expression in E. coli” value does the source give for “MAAVDVNQPITGHKSAIIRNYNTNPRLIYQTVCGVNGPLVILNDVKFPQFSEIVKITLPDGSKRSGQVLEISKNKAVVQVFEGTSGIDAKNTICEFTGDILRTPVSEDMLGRIFNGSGKPIDKGPPVLAEDFLDINGQPINPWSRIYPEEMIQTGISAIDVMNSIARGQKIPIFSASGLPHNEIAAQIVRQGGLVQLPDRPHEQTNFAIVFAAMGVNMETARFFKQDFEENGSMENVCLFLNLANDPTIERIITPRIALTSAEFLAYQCKKHVLVVLTDMSSYAEALREVSAAREEVPGRRGFPGYMYTDLATIYERAGRVEGRDGSITQIPILTMPNDDITHPIPDLTGYITEGQIYVDRQLHNRLIYPPINVLPSLSRLMKSAIGEGMTREDHSDVSNQLYACYAIGKDVQAMKAVVGEEALSSDDLLYLEFLTKFEKNFITQGHYENRSVFESLDIGWQLLRIFPREMLKRIPESTLEKYYPRGGAKE” here?
A: Its value is “not soluble”.

Q: With “DIVLTQSPSSLAVSLGQRATISCRASQSVSTSSFRYMHWYQQKPGQPPRLLIKYASNLESGVPARFSGSGSGTDFTLNIHPVEEEDTATYYCQHSWEIPYTFGGGTKLEIKRADAAPTVSIFPPSSEQLTSGGASVVCFLNNFYPKDINVKWKIDGSERQNGVLNSWTDQDSKDSTYSMSSTLTLTKDEYERHNSYTCEATHKTSTSPIVKSFNRNEC” as the sequence, how does the “soluble on expression in E. coli” value read?
A: The value was “soluble”.

Q: For “MCLLTFAYQTNKRFPFVFAANRDEYYDRPTLFAHEWKEDPNVIGGRDLKKGGTWLGFTKEGKIAALTNVRDSFKHSGIPFQSRGFIVQDYLTSNTSAQLFMERLIQTADEFDGYNLVFGSYHDLYYYTNRMEKGEKLKPGYYMLSNGQMNSHWPKAVKVRTHLQSVLEREQDIETIIKKLLAIMQDEERFPDEQLPDTGVGIEWERILSPIFINGKTYGTRATTVIICTDEGESFFLEWNYGPMGIFLEKREFHIQLPSSYLNMKKDYELEHHHHHH”, which “soluble on expression in E. coli” value is on record?
A: Its value is “not soluble”.

Q: For “MVHYKLSYFPIRGAGEVIRQIFVYAGQSFEDHRISIEEWAAVKPTTPFGQLPLLEVDGKVLPQSHSIARFLARQFGINGKCAWEEAQVNSIADQFKDYRNEVRPYVMVKMGFAEGDLDALSKDVFLPGFKKHYGFIYNFLKTAGSGYLVGDSLTFVDLLIAQHTADILSTDPALLEEFPQFKAHQEKVHSNANIKKWLETRPETQF”, which “soluble on expression in E. coli” value is on record?
A: The value was “not soluble”.

Q: Which “soluble on expression in E. coli” value does the source give for “MSTPSLYEMLTFSFSGELPLEQISERDQLILSVMDNMQRIINCRAGTLAHLPDYGLPDLSLIHQGMAAGIHGLMRQIEETLLRYEPRLSQIQVELLPQPRPGHLNYLIHAQLPDTGWIRFDGVFSPEGRIVLRHLKQQERAY” here?
A: The value was “not soluble”.

Q: With “MGSDKIHHHHHHMNNVLILYPKLFNCYSKFSRKVLKITSSLGAATLVYPDDPNGLIEKFCEESSGKMTNKEFPNWTPDDITHAIIFDDGEEFIEETERLKESKKPLRLIGICITRVINIKTETEYQSEKSTPIYEYIGRGSYWGNPYSMFEEGEDREEVIRKYKYDFDFEKFPNKEKSEVYKLAGKRLGCFCKPQACHGDVLADFLNSWDDGK” as the sequence, how does the “soluble on expression in E. coli” value read?
A: The value was “not soluble”.

Q: Which “soluble on expression in E. coli” value does the source give for “MSTRLTTLSHTSEGHRVSVHYGYDDKGRLTGERQTVENPETGELLWHHETGHAYNEQGLANRVTPDSLPPVEWLTYGSGYLAGMKLGGTPLLEFTRDRLHRETVRSFGSMAGSNAAYKLTSTYTPAGQLQSQHLNSLVYDRDYGWNDNGDLVRISGPRQTREYGYSATGRLESVRTLAPDLDIRIPYATDPAGNRLPDPELHPDSTLTVWPDNRIAEDAHYVYRHDEYGRLTEKTDRIPAGVIRTDDERTHHYHYDSQHRLVFYTRIQHGEPLVESRYLYDPLGRRMAKRVWRRERDLTGWMSLSRKPEVTWYGWDGDRLTTVQTDTTRIQTVYEPGSFTPLIRVETENGEREKAQRRSLAETLQQEGSENGHGVVFPAELVRLLDRLEEEIRADRVSSESRAWLAQCGLTVEQLARQVEPEYTPARKVHFYHCDHRGLPLALISEDGNTAWRGEYDEWGNQLNEENPHHLHQPYRLPGQQHDEESGLYYNRHRHYDPLQGRYITPDPIGLRGGWNMYQYPLNPIQVIDPMGLDAIENMTSGGLIYAVSGVPGLIAANSITNSAYQFGYDMDAIVGGAHNGAADAMRHCYLMCRMTKTFGSTIADVIGKNHEAAGDRQGQPAKERIMDLKNNTVGIACGDFSAKCSDACIEKYNTGQLFGLDGIKADNPIKAKQGSSDASNYLEHHHHHH” here?
A: The value was “not soluble”.

Q: Which “soluble on expression in E. coli” value does the source give for “MKAKREALISLFHAIKEEKVDSDIIDLLLLINSIKGIYTTSSCSGRIGILEEPSLGAKPLSRWLIKVHRPMSFEEARDALKRAREGLIFLKSQPPIFHVVAETIENAKLVHEIGLASGFKYTTFKAISSRFLVEINGTEYLTVPLGKDGRIIASDEYLKFAISIGNKMLERGKSKLPRLRDNFEKIKKKLGEDPLFIQLKREILEILEHHHHHH” here?
A: Its value is “not soluble”.

Q: Which “soluble on expression in E. coli” value does the source give for “MGSDKIHHHHHHMLEQKINVDNTALFEQLWGWTNELREKIDARFELHSDPSTENFKKYSALIGEAHGSVNTFSGPEIDWLVHSWLREPKSGFCNMHLTVWLKSQIHVPHLAIVFATVPELFFFIDYVSRTDLFTDLDYLDRYYEPVNQTYLAFLKDSRFQQYISKTLYIRQVQSHTSLCYTSPVTEETLARIHTLAHEMIDRWLGWVDEAEPVAESERDALSERDLFVRRTVAERDPDNQIAVRLFGAEMTDKLVRSLWGGDRIL” here?
A: Its value is “not soluble”.

Q: With “MGSDKIHHHHHHLKKQAVVIGAGLAGMSAAIRLAGDGYEVTMLEQNGNVGGKLNQRSGQGFTFDTGPSILTMPWVLEQLFTSVHRRLDDYLEIERIEPQWRTFFEDGTQLDVKGDLPGMLEEFKKVSDQADFVELFSYSKKMYDLCLDSFYKYSLEDLKDLKKYHTMSELLKMDPLNTVASGTKKHLNNKYLEQLFNYMVMYVGSNPYEAPAVFNQMIYVQMGLGIYYVKGGMYNIARAMKTVLDELRVTIHVNTPVARVVTEGKRAIGVETTDGTFYPADVVVSNLEVIPTYQHLISEKKGPKQAKKLNQSFVPSVSGLVLLLGVNREYKDLKHHNFFFSDDPEREFAQMFKDGVPPEDPTIYVGVSSKSDASQAPEGKDNLFVLTHVPPLTKQDGKTDWDAYREVVLDKLERMGLTDLRESIEFEYRFTPEDLKSLYGPNGGSIYGVAADRKKNGGFKIPSKSDLYEGLYFVGGSTHPGGGVPMVTLSGQLTADLIQKHEKVKA” as the sequence, how does the “soluble on expression in E. coli” value read?
A: The value was “not soluble”.

Q: With “MKEIIFDDIGSYPLPEGVSREWVQNAFKTRAEDEKLFTVINDAFQQKIDAGVEVPTYPQYQDMNEQFLKVIRDSNCTDSPFEVKLECARIEELEAIETVAKAYKEKFGETLKVRICVTGPTELYLKEFGGTRYTDIYTLFAKSINRFVRNSMKSAKHFKIATVSIDEPSIGLNPELAFDENDVISALTEASKAASKWGADVEIHLHSPLYYNYACETTTINVIGVESAGTPSYLELIDKKMLEDTDSFLRIGIARTDIFSLAGILNEKYCTNIWKDQQYIPEIVSQLETPEVIEKRLKLAYRRFGSLIKYVGPDCGLGSWPNQRIAFILLSNVAQGIKNFRENLLEHHHHHH” as the sequence, how does the “soluble on expression in E. coli” value read?
A: Its value is “soluble”.

Q: With “MMKTVLIYYPFSLAAERNSGSKLRPYEMHQAFLRWGAKEGVDVLLIAGTSAEREKQFQELRSQGKLDDVWFCYMENQTIPLWLTDPGHRSQRPFVDRDVLRYLKARNVPIGVFYRDVYWKFPDLYPLRGWKKAAMQMMYRWEERFYERYCDVIFLPSLEMGTYVAIRRPMVDLPPGGKQKPFQRFGTAKQPLNAIYVGGINNADYGLLLLLEAIRLANRRKPLVSLTVVCRKDEYERQPLAVKEELAALQVRVEHVSGEALDRLYAEMDFAFIPRRRSEYNDFSVPVKLVDYLSSGLPIVATACSAQKRLIEADGYGVICDDNPSSMAEAIAKMADMLEECRLRIAQTFMAKHSWEARVEKVKETLVGGLR” as the sequence, how does the “soluble on expression in E. coli” value read?
A: Its value is “not soluble”.

Q: For “MAIQTVSTKPFANQKPGTSGLRNKVIAFQQPRYLENFVQSIFNSLDDIEGKTLVVGGDGRYYNDVAIQIIVRMAAANGFAKIIVGQNGIFSTPAVSCVIRKYEAFGGIVLSASHNPGGPKGDFGIKYNVSNGGPAPEKITDRIFSETKKINQYFISDAAKESVDLDKLGTYKIENTTVEVINSVIDYAELMQQIFDFDKVRELFAKGFKVRFDSMCAVSGPYAKYIFETLLKAPAGTVVNAQPLEDFGGFHPDPNPVNAEDLVKHMRSGKYDFGAASDGDADRNMIVGKQIDVSPSDSLAIMAANAHLIPVYSKGIKGVARSMPTSTAVDRVAESLRLPCFETPTGWKFFGNLLDAEKITLCGEESYGTGSNHIREKDGVWAVLFWLNLVAVTGKQVDQLVEEHWQKFGRNFYSRHDYEAIDTAIANSIIDSLRERLSSLVGAQLNDEKVAKADDFSYIDPIDGLVSNHQGIRIIFEDGSRIVFRLSGTGTQGATLRIYLEKYESDSSKFSIPTQQALASLIEIAEDLTNIKSLTGMTEPTVVT”, which “soluble on expression in E. coli” value is on record?
A: Its value is “not soluble”.

Q: Which “soluble on expression in E. coli” value does the source give for “MSLSGRAGRHERTGEVIVQSYNPEHYSIEFAKKHDFIGFYNHEMQLRKMGSYPPFYYLTMINVSDENEMKAIRTIQEMAQFLRGKLGPDAVILGPVPSTITRIKNKYRYQCIIKYKIEPNLKKELKTLITHYQKDQQKGLTITIDVQPYVLMEGHHHHHH” here?
A: Its value is “soluble”.

Q: With “MNKKMIFFDIDGTIVDEKTHVIPEGTIAAIKKARSNGHLVFINTGRTFFNVPDSIRQIGFDGYVCGCGTYIHINGQTLLEKSISHKRCVEIVEKLRECKLDALLEGQKDFFFDQREPVSEKTLELKSKFGKRGYDVSKSWDDSDIVFDKFVIWTRKESNLEAFKSHISNDFDYIDREDEEGEFGEIVLKGYSKATGIKFLQDYFNIPIEDCYALGDSLNDLPMLQYVPNSIAMGNSSKGLFDLVAFVTKDIMEDGIEYALKHYNII” as the sequence, how does the “soluble on expression in E. coli” value read?
A: The value was “not soluble”.

Q: For “MKFFSNPKQEAQTHFHLHKDKETMSVSAIFGTGIVTVAASPVLRQFQVPKLGNGGGLGMVIECSSRPQKKSTAHHRKTRPKKTQPWDIKRKPTVYAPLPPLPAEWSPFTLASDDGGAATAAGDLVSGAA”, which “soluble on expression in E. coli” value is on record?
A: The value was “not soluble”.
